According to patent US20160185837A1 (AstraZeneca / MedImmune, published 2016):
Ends that are not written are not given here.

Experiments:
Assay in all cases: cell-based or functional assay
[1] = target: T1, human GIP receptor (human, UniProt P48546 22-466)
T1 sequence (looked up): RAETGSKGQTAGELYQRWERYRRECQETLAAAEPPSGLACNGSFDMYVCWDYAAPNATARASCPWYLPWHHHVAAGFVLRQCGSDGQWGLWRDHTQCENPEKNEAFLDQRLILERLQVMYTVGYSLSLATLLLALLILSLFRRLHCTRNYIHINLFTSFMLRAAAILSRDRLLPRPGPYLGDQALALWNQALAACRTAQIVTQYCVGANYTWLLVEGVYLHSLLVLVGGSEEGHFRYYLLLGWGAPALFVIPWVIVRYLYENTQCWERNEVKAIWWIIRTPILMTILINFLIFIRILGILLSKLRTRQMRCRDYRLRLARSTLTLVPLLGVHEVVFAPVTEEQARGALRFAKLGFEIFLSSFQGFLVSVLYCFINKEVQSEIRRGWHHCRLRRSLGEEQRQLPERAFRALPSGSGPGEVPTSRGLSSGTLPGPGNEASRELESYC

[2] = target: T2, rat GLP-1 receptor (rat, UniProt P32301 22-463)
T2 sequence (looked up): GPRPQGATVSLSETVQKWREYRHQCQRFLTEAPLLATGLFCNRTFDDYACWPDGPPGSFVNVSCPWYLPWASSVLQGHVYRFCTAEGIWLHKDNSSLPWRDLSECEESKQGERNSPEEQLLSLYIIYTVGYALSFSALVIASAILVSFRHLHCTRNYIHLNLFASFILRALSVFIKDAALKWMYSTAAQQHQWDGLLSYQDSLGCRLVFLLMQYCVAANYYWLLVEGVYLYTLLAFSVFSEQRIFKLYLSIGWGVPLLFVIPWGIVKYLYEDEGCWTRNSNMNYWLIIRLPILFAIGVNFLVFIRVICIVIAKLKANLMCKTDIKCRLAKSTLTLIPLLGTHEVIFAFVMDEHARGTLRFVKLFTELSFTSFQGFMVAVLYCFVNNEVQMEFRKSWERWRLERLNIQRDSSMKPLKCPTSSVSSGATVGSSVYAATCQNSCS

[3] = target: T3, rat GIP receptor (rat, UniProt P43219 19-455)
T3 sequence (looked up): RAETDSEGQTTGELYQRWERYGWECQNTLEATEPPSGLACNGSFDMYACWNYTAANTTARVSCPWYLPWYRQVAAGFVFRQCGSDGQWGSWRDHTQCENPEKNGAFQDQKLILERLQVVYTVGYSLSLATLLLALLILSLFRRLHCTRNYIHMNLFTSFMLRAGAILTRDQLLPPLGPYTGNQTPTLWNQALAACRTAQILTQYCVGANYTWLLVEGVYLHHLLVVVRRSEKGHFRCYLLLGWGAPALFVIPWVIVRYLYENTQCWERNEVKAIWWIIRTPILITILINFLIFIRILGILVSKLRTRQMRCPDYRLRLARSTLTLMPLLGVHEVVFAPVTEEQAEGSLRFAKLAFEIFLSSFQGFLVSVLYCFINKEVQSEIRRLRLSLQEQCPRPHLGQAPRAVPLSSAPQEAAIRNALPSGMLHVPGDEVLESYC

[4] = target: T4, mouse GLP-1 receptor (mouse, UniProt O35659 22-463)
T4 sequence (looked up): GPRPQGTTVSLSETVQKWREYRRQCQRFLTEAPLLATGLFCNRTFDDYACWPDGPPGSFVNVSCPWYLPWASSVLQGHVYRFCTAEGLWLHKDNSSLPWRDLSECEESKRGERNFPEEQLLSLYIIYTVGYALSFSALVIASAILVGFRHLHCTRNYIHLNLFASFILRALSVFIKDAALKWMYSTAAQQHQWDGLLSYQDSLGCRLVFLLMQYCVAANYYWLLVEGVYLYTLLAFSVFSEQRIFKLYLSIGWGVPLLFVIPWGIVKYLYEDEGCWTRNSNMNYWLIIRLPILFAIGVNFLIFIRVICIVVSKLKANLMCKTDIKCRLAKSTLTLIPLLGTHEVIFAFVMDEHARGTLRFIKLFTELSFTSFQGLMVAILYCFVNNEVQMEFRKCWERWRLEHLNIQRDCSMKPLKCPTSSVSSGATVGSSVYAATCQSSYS

[5] = target: human GLP-1 receptor (human, UniProt P43220 24-463)
[6] = target: T5, mouse GIP receptor (mouse, UniProt Q0P543 19-460)
T5 sequence (looked up): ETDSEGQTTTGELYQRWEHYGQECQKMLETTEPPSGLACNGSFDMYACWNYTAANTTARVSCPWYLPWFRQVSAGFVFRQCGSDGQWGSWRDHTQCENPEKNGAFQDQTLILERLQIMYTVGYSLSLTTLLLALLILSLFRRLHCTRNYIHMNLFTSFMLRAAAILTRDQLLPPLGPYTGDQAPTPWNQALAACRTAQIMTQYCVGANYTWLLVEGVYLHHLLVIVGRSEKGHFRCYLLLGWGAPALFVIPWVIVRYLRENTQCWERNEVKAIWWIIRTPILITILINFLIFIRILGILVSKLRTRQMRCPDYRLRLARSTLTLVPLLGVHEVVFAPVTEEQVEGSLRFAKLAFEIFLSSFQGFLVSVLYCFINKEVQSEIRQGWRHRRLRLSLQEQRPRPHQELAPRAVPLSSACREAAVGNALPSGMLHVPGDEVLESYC

[7] = target: human glucagon receptor (human, UniProt P47871 26-477)

B1: IP127 (Fc fusion)
chain: YSEGTFTSDVSSYLEEEAVREFIEWLLAGGAAAGGSGSTASSGSGSATGGGGAATHTCPPCPAPEF
[1]
  cAMP EC50: 0.12 nM
[2]
  cAMP EC50: 0.047 nM
[3]
  cAMP EC50: 17 nM
[4]
  cAMP EC50: 0.6 nM
[5]
  cAMP EC50: 0.087 nM

B2: IP257 (Fc fusion)
chain: SEGTFTSDYSKLLEEEAVRLFIEWLVKGPGGGGGSGGGGSGGGGSGGGGSATHTCPPCPAPEF
[6]
  cAMP EC50: 4300 nM
[1]
  cAMP EC50: 180 nM
[2]
  cAMP EC50: 1.3 nM
[3]
  cAMP EC50: 190 nM
[4]
  cAMP EC50: 46 nM
[5]
  cAMP EC50: 7.2 nM

B3: IP383 (Fc fusion)
chain: YSEGTFTSLYRILLEEEAVRLFIEWLLAGGGGGGSGGGGSGGGGSGGGGSATHTCPPC
[7]
  cAMP EC50: > 1610 nM
[6]
  cAMP EC50: 46.7 nM
[2]
  cAMP EC50: 0.13 nM
[3]
  cAMP EC50: 0.976 nM
[4]
  cAMP EC50: 20.1 nM
[5]
  cAMP EC50: 0.19 nM

B4: IP147 (Fc fusion)
chain: YSEGTFTSDYSKLLEEEAVRLFIEWLVKGPAPPGGSGSTASSGSGSATGGGGAATHTCPPCPAPEF
[7]
  cAMP EC50: 130 nM
[1]
  cAMP EC50: 0.0037 nM
[2]
  cAMP EC50: 1.1 nM
[3]
  cAMP EC50: 6.8 nM
[4]
  cAMP EC50: 8.5 nM
[5]
  cAMP EC50: 0.067 nM

B5: IP228 (Fc fusion)
chain: YSEGTFTSDYSKLLEEEAVRLFIEWLKNGGAAAGGSGSTASSGSGSATGGGGAATHTCPPCPAPEF
[7]
  cAMP EC50: 1400 nM
[1]
  cAMP EC50: 0.014 nM
[2]
  cAMP EC50: 0.096 nM
[3]
  cAMP EC50: 7 nM
[4]
  cAMP EC50: 0.69 nM
[5]
  cAMP EC50: 0.16 nM

B6: IP149 (Fc fusion)
chain: YSQGTFTSDYSKLLEEEAVRLFIEWLVKGPAPPGGSGSTASSGSGSATGGGGAATHTCPPCPAPEF
[7]
  cAMP EC50: 0.2 nM
  cAMP EC50, Batch 2: 0.23 nM
[6]
  cAMP EC50, Batch 2: 53 nM
[1]
  cAMP EC50: 0.0081 nM
  cAMP EC50, Batch 2: 0.012 nM
[2]
  cAMP EC50, Batch 2: 0.031 nM
[3]
  cAMP EC50, Batch 2: 0.19 nM
[4]
  cAMP EC50, Batch 2: 0.37 nM
[5]
  cAMP EC50: 0.07 nM
  cAMP EC50, Batch 2: 0.12 nM

B7: IP245 (Fc fusion)
chain: YSEGTFTSDYSIAMDEEAVRLFIEWLVKGPAAAGGSGSTASSGSGSATGGGGAATHTCPPCPAPEF
[6]
  cAMP EC50: 190 nM
[1]
  cAMP EC50: 0.15 nM
[2]
  cAMP EC50: 0.4 nM
[3]
  cAMP EC50: 48 nM
[4]
  cAMP EC50: 4.8 nM
[5]
  cAMP EC50: 0.46 nM

B8: IP249 (Fc fusion)
chain: YSEGTFTSDYSKLLEEEAVRLFIEWLLAQKAAAGGSGSTASSGSGSATGGGGAATHTCPPCPAPEF
[6]
  cAMP EC50: 180 nM
[1]
  cAMP EC50: 0.019 nM
[2]
  cAMP EC50: 0.15 nM
[3]
  cAMP EC50: 0.19 nM
[4]
  cAMP EC50: 15 nM
[5]
  cAMP EC50: 2.6 nM

B9: IP222 (Fc fusion)
chain: YSEGTFTSDYSKLLEEEAVRLFIEWLKNGGPSSGAPPPSAAAGGSGSTASSGSGSATGGGGAATHTCPPCPAPEF
[7]
  cAMP EC50: 590 nM
[6]
  cAMP EC50: 160 nM
[1]
  cAMP EC50: 0.015 nM
[2]
  cAMP EC50: 0.058 nM
[3]
  cAMP EC50: 0.72 nM
[4]
  cAMP EC50: 0.46 nM
[5]
  cAMP EC50: 0.14 nM

B10: IP235 (Fc fusion)
chain: YSEGTFTSDYSKLLEEEAVRLFIEWLVKGPGGGGGSGGGGSATHTCPPCPAPEF
modifications: cysteine pairing not given here; also: fused to IgG1-TM Fc
[7]
  cAMP EC50: > 9900 nM
[6]
  cAMP EC50: 2600 nM
[1]
  cAMP EC50: 0.021 nM
[2]
  cAMP EC50: 0.037 nM
[3]
  cAMP EC50: 0.65 nM
[4]
  cAMP EC50: 0.6 nM
[5]
  cAMP EC50: 0.23 nM

B11: IP024 (Fc fusion)
chain: YSEGTFTSDYSKLLEEEAVRLFIEWLLAGAAAGGSGSTASSGSGSATGGGGAATHTCPPCPAPEF
[7]
  cAMP EC50: 17 nM
  cAMP EC50, Batch 2: 25 nM
[1]
  cAMP EC50: 0.0071 nM
  cAMP EC50, Batch 2: 0.01 nM
[2]
  cAMP EC50: 0.083 nM
[3]
  cAMP EC50: 0.047 nM
[4]
  cAMP EC50: 1.1 nM
[5]
  cAMP EC50: 0.095 nM
  cAMP EC50, Batch 2: 0.16 nM

B12: IP244 (Fc fusion)
chain: YSEGTFTSDVSKLLEEEAVRLFIEWLLAGAPPGGSGSTASSGSGSATGGGGAATHTCPPCPAPEF
[6]
  cAMP EC50: 3.6 nM
[1]
  cAMP EC50: 0.042 nM
[2]
  cAMP EC50: 0.066 nM
[3]
  cAMP EC50: 0.17 nM
[4]
  cAMP EC50: 0.79 nM
[5]
  cAMP EC50: 0.18 nM

B13: IP124 (Fc fusion)
chain: YSEGTFTSDYSKLLEEEAVRLFIEWLVKGAAAGGSGSTASSGSGSATGGGGAATHTCPPCPAPEF
[6]
  cAMP EC50: 130 nM
[1]
  cAMP EC50: 0.009 nM
[2]
  cAMP EC50: 0.062 nM
[3]
  cAMP EC50: 0.31 nM
[4]
  cAMP EC50: 0.42 nM
[5]
  cAMP EC50: 0.091 nM
